According to PMC2807175:

B1: OsSUT5 (Oryza sativa Japonica Group) (protein)
chain: MEEGRRGDREGKSAAGWTALSTTKTTLEEKRRLQANGSVGGDAGTSGFRRIVRLFFACMVAGGIQYGWALQLSLLSPYSQTLGISHSYVSLTWICGPIAGFVVQPIVGYYSDRCTMKMGRRRPFILVGCLIICISVMIIGFSADIGRHLGDTKEHCSTYTGPRWSAAMVYIVGFWFLDFANNTVQGPARAMMADLSAGHHGPNVGQSIFSLWMAIGSVLGYLSGANGKWHEWFPWLKTAACCDACANLKGAFFTAVLLIVVSMTVTMYLADEMPLDKQDVDTSGGGGCAVFVDLFKSLRNLPPAMFKVLAVTAVTWLSWFPFIQYNTDWMGREIYHGEPQGTAAKADVYDAGVREGAMGLLFCSVALGVTSFVIPKLCRRLTSKVVWSISNFLVFALMAVMVAVGMVSMRGYRPSLAAGLTGPDPTLKAVALVVFALIGIPQAVLFSVPWAVASEVTAEEGGGQGLAIGVLNIAIVVPQLVIALTAGPIDGAFNKGNTPAFGIGGAFAFICGVLALIWLPKTRGVSNAAVVAGGH
B2: OsSUT1 (Oryza sativa Japonica Group) (protein)
chain: MARGSGAGGGGGGGGGGLELSVGVGGGGGARGGGGGEAAAAVETAAPISLGRLILSGMVAGGVQYGWALQLSLLTPYVQTLGLSHALTSFMWLCGPIAGMVVQPCVGLYSDRCTSKWGRRRPYILTGCVLICLAVVVIGFSADIGYAMGDTKEDCSVYHGSRWHAAIVYVLGFWLLDFSNNTVQGPARALMADLSGRHGPGTANSIFCSWMAMGNILGYSSGSTNNWHKWFPFLKTRACCEACANLKGAFLVAVIFLSLCLVITLIFAKEVPFKGNAALPTKSNEPAEPEGTGPLAVLKGFRNLPTGMPSVLIVTGLTWLSWFPFILYDTDWMGREIYHGDPKGTDPQIEAFNQGVRAGAFGLLLNSIVLGFSSFLIEPMCRKVGPRVVWVTSNFLVCIAMAATALISFWSLKDFHGTVQKAITADKSIKAVCLVLFAFLGVPLAVLYSVPFAVTAQLAATRGGGQGLCTGVLNISIVIPQVVIALGAGPWDELFGKGNIPAFGLASGFALIGGVAGIFLLPKISKRQFRSVSMGGGH

Substrate: OC[C@H]1O[C@@](CO)(O[C@H]2O[C@H](CO)[C@@H](O)[C@H](O)[C@H]2O)[C@@H](O)[C@@H]1O
Assay: cells, lysate or membranes
Settings: pH 5.6, Na Ringer, membrane potential -117 mV, H+ symport

Protein | K0.5
B1 | 2.32 mM
B2 | 7.50 mM
